Where a chain is given by its changes, count along the chain named.
T1: CD127 (as used in the BIAcore measurement of Table 1) (human, UniProt P16871 21-239, limits assumed)
T1 construct: the Mabs are called anti-human CD127; also called alpha chain of the IL-7 receptor; IL-7Ralpha
T1 sequence (looked up): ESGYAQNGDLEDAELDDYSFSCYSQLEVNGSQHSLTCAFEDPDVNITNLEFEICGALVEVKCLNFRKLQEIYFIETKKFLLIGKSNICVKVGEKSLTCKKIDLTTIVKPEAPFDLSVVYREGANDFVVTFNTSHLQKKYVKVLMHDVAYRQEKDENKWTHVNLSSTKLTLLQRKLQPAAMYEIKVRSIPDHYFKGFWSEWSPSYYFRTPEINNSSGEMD

B1: MD707-1 (antibody, V domains shown)
VH: AVHLVESGGGLVQPKESLKISCAASGFTFSNAAMFWVRQAPGKGLEWVARIRTKANNYATYYADSVKGRFTISRDDSKSMVYLQMDNVKTDDTAMYYCIVVVLTTTRDYFDYWGQGVMVTVSS
VL: DIVLTQAPLSVSVTPGESASISCRSSQSLLTVKGITSLYWFLQKPGKSPQLLMYRMSNLASGVPDRFRGSGSETDFTLKISKVETEDVGVYYCAQFLEYPHTFGAGTKLELKR
notes: also called 7MD07-1; rat anti-human CD127 Mab MD707-1
B2: MD707-3 (antibody, V domains shown)
VH: B1 VH with F35Y, D64E
VL: B1 VL with M53I
notes: also called 7MD07-3; rat anti-human CD127 Mab MD707-3
B3: MD707-13 (antibody, V domains shown)
VH: QLKESGPGLVQPSQTLSLTCTVSGLSLPNNNIAWIRQSPGKGLEWMGVIWSNGDTDYNSAIRSRLSISRDSSKSQVFLRMNSLQSEDTAMYFCAREGMTTLDYWGQGVVVTVSS
VL: EIVLTQSPTTMAASPGEKVTITCRASSSVSYMHWFQQKSGSSPKPWIYDSSDLASGVPDRFSGSGSGTSYSLTISSMEAEDAATYYCLQRSSYPRTFGGGTKLELKR
notes: also called 7MD07-13; rat anti-human CD127 Mab MD707-13

Each binder was assayed against T1, CD127 (as used in the BIAcore …) (assay: SPR (BIAcore)).

**Q.** For B1, which Kd is on record?
**A.** The Kd was 15.9 nM.

**Q.** B2 was tested. Which Kd did it give?
**A.** Its Kd is 6.52 nM.

**Q.** For B3, which Kd is on record?
**A.** Its Kd is 1.31 nM.

— patent US20140308281A1 (OSE IMMUNOTHERAPEUTICS, published 2014)
